Experimental data as given in publication PMC5826585.

Biological target: IGF2BP2-dRRM (Homo sapiens, UniProt Q9Y6M1 158-599)
Assay: pull-down

IGF2BP2-dRRM, sequence (Q9Y6M1 158-599): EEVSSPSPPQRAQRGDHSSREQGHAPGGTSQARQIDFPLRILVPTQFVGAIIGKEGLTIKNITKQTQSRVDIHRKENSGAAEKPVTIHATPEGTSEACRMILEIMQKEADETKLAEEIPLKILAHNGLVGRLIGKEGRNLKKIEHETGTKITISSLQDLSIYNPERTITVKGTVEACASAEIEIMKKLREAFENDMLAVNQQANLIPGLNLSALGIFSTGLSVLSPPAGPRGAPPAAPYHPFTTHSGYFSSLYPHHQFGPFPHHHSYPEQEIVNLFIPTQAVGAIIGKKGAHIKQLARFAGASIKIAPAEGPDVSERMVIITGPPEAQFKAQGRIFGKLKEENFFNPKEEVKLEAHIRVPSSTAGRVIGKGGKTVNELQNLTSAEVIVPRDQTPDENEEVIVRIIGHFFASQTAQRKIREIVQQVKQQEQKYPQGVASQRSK

**Q.** Does CGUCUCGGACUCGGACUGCU (ssRNA, m6A at positions 9 and 15) [ss-m6A (biotin)] bind?
**A.** binds
